IntAct's records for PubMed 31515488

B1: E3 ubiquitin-protein ligase TRIM69 (Homo sapiens), Q86WT6 (parent)
chain: MEVSTNPSSNIDPGDYVEMNDSITHLPSKVVIQDITMELHCPLCNDWFRDPLMLSCGHNFCEACIQDFWRLQAKETFCPECKMLCQYNNCTFNPVLDKLVEKIKKLPLLKGHPQCPEHGENLKLFSKPDGKLICFQCKDARLSVGQSKEFLQISDAVHFFTEELAIQQGQLETTLKELQTLRNMQKEAIAAHKENKLHLQQHVSMEFLKLHQFLHSKEKDILTELREEGKALNEEMELNLSQLQEQCLLAKDMLVSIQAKTEQQNSFDFLKDITTLLHSLEQGMKVLATRELISRKLNLGQYKGPIQYMVWREMQDTLCPGLSPLTLDPKTAHPNLVLSKSQTSVWHGDIKKIMPDDPERFDSSVAVLGSRGFTSGKWYWEVEVAKKTKWTVGVVRESIIRKGSCPLTPEQGFWLLRLRNQTDLKALDLPSFSLTLTNNLDKVGIYLDYEGGQLSFYNAKTMTHIYTFSNTFMEKLYPYFCPCLNDGGENKEPLHILHPQ
B2: Conserved oligomeric Golgi complex subunit 7 (Homo sapiens), P83436 (parent)
chain: MDFSKFLADDFDVKEWINAAFRAGSKEAASGKADGHAATLVMKLQLFIQEVNHAVEETSHQALQNMPKVLRDVEALKQEASFLKEQMILVKEDIKKFEQDTSQSMQVLVEIDQVKSRMQLAAESLQEADKWSTLSADIEETFKTQDIAVISAKLTGMQNSLMMLVDTPDYSEKCVHLEALKNRLEALASPQIVAAFTSQAVDQSKVFVKVFTEIDRMPQLLAYYYKCHKVQLLAAWQELCQSDLSLDRQLTGLYDALLGAWHTQIQWATQVFQKPHEVVMVLLIQTLGALMPSLPSCLSNGVERAGPEQELTRLLEFYDATAHFAKGLEMALLPHLHEHNLVKVTELVDAVYDPYKPYQLKYGDMEESNLLIQMSAVPLEHGEVIDCVQELSHSVNKLFGLASAAVDRCVRFTNGLGTCGLLSALKSLFAKYVSDFTSTLQSIRKKCKLDHIPPNSLFQEDWTAFQNSIRIIATCGELLRHCGDFEQQLANRILSTAGKYLSDSCSPRSLAGFQESILTDKKNSAKNPWQEYNYLQKDNPAEYASLMEILYTLKEKGSSNHNLLAAPRAALTRLNQQAHQLAFDSVFLRIKQQLLLISKMDSWNTAGIGETLTDELPAFSLTPLEYISNIGQYIMSLPLNLEPFVTQEDSALELALHAGKLPFPPEQGDELPELDNMADNWLGSIARATMQTYCDAILQIPELSPHSAKQLATDIDYLINVMDALGLQPSRTLQHIVTLLKTRPEDYRQVSKGLPRRLATTVATMRSVNY
B3: Microtubule-associated tumor suppressor candidate 2 (Homo sapiens), Q5JR59-3 (parent)
chain: MGHCCCKPYNCLQCLDKTNESALVKEKELSIELANIRDEVAFHTAKCEKLQKEKEELERRFEDEVKRLGWQQQAELQELEERLQLQFEAEMARLQEEHGDQLLSIRCQHQEQVEDLTASHDAALLEMENNHTVAITILQDDHDHKVQELMSTHELEKKELEENFEKLRLSLQDQVDTLTFQSQSLRDRARRFEEALRKNTEEQLEIALAPYQHLEEDMKSLKQVLEMKNQQIHEQEKKILELEKLAEKNIILEEKIQVLQQQNEDLKARIDQNTVVTRQLSEENANLQEYVEKETQEKKRLSRTNEELLWKLQTGDPTSPIKLSPTSPVYRGSSSGPSSPARVSTTPR
partner: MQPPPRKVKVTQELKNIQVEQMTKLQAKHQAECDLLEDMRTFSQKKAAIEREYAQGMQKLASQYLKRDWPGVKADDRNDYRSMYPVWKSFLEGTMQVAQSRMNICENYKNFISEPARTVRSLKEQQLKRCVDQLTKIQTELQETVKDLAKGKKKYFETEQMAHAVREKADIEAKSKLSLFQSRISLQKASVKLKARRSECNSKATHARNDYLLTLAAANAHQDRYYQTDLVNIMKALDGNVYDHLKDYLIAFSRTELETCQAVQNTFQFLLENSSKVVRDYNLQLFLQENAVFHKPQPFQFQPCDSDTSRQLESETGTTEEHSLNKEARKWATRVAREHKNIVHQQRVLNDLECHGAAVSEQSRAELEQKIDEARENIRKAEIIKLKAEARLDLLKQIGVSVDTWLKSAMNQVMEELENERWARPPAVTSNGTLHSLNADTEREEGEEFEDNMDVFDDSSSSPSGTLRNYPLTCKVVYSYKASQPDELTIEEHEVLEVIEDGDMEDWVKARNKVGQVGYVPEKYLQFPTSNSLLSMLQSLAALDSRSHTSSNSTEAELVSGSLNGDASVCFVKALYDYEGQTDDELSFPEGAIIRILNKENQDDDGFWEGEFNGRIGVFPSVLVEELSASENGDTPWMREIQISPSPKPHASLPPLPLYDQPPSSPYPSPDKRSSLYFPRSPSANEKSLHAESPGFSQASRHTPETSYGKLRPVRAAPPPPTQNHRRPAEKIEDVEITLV
B4: Protein FAM9B (Homo sapiens), Q8IZU0 (parent)
chain: MAAWGKKHAGKDPVRDECEERNRFTETREEDVTDEHGEREPFAETDEHTGANTKKPEDTAEDLTAKRKRMKMDKTCSKTKNKSKHALRKKQLKRQKRDYIHSLKLLNVLEEYITDEQKEEEEEEGEEEELIRIFQEQQKKWQQYRSVRRERLKEMKLLRDQFVKALEDFEDLCDRVFSDEDSELDN
partner: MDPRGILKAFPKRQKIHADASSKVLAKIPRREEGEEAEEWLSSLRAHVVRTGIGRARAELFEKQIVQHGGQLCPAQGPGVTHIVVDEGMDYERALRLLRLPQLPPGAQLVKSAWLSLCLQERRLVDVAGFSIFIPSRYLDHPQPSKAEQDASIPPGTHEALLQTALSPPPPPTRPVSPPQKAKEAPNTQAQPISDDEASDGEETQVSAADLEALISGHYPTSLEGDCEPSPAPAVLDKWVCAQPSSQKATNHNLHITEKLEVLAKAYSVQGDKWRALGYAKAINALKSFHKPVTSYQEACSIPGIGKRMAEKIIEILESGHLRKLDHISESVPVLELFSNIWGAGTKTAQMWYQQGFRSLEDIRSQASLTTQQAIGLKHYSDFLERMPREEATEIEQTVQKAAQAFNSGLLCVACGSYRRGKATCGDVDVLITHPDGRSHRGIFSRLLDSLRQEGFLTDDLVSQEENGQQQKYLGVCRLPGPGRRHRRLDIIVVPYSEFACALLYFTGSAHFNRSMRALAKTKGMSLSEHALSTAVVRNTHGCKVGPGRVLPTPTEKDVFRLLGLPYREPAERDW
B5: Kinetochore protein NDC80 homolog (Homo sapiens), O14777 (parent)
chain: MKRSSVSSGGAGRLSMQELRSQDVNKQGLYTPQTKEKPTFGKLSINKPTSERKVSLFGKRTSGHGSRNSQLGIFSSSEKIKDPRPLNDKAFIQQCIRQLCEFLTENGYAHNVSMKSLQAPSVKDFLKIFTFLYGFLCPSYELPDTKFEEEVPRIFKDLGYPFALSKSSMYTVGAPHTWPHIVAALVWLIDCIKIHTAMKESSPLFDDGQPWGEETEDGIMHNKLFLDYTIKCYESFMSGADSFDEMNAELQSKLKDLFNVDAFKLESLEAKNRALNEQIARLEQEREKEPNRLESLRKLKASLQGDVQKYQAYMSNLESHSAILDQKLNGLNEEIARVELECETIKQENTRLQNIIDNQKYSVADIERINHERNELQQTINKLTKDLEAEQQKLWNEELKYARGKEAIETQLAEYHKLARKLKLIPKGAENSKGYDFEIKFNPEAGANCLVKYRAQVYVPLKELLNETEEEINKALNKKMGLEDTLEQLNAMITESKRSVRTLKEEVQKLDDLYQQKIKEAEEEDEKCASELESLEKHKHLLESTVNQGLSEAMNELDAVQREYQLVVQTTTEERRKVGNNLQRLLEMVATHVGSVEKHLEEQIAKVDREYEECMSEDLSENIKEIRDKYEKKATLIKSSEE
partner: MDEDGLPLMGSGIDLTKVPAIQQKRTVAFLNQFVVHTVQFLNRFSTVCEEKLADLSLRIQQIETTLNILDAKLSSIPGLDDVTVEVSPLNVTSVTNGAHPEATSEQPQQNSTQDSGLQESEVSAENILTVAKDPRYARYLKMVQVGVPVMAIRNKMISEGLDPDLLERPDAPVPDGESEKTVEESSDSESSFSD

Variants of: B1
Conditions: with at5g1_human ATP5MC1, P05496
Chain of at5g1_human ATP5MC1, P05496 (P05496 whole entry): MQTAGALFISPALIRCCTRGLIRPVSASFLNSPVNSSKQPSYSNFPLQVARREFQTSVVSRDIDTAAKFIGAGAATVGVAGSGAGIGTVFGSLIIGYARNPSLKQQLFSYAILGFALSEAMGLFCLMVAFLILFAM

| effect of a mutation on the interaction | Variant |
| --- | --- |
| with no effect | I399F |
| disrupting interaction strength | N239K |
| with no effect | A190V |

Variants of: B1
Conditions: with maga4_human MAGEA4, P43358
Chain of maga4_human MAGEA4, P43358 (P43358 whole entry): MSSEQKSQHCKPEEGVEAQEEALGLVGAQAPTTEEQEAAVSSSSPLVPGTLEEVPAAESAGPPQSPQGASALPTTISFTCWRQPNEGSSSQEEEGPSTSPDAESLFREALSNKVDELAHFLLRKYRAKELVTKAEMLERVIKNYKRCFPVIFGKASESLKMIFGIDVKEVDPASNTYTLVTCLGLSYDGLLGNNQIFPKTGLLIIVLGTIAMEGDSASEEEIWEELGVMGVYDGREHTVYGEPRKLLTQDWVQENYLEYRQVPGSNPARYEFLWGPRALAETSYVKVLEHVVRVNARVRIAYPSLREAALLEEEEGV

| effect of a mutation on the interaction | Variant |
| --- | --- |
| with no effect | I399F |
| with no effect | N239K |
| with no effect | A190V |

Variants of: B2
Conditions: with taxb1_human TAX1BP1, Q86VP1
Chain of taxb1_human TAX1BP1, Q86VP1 (Q86VP1 whole entry): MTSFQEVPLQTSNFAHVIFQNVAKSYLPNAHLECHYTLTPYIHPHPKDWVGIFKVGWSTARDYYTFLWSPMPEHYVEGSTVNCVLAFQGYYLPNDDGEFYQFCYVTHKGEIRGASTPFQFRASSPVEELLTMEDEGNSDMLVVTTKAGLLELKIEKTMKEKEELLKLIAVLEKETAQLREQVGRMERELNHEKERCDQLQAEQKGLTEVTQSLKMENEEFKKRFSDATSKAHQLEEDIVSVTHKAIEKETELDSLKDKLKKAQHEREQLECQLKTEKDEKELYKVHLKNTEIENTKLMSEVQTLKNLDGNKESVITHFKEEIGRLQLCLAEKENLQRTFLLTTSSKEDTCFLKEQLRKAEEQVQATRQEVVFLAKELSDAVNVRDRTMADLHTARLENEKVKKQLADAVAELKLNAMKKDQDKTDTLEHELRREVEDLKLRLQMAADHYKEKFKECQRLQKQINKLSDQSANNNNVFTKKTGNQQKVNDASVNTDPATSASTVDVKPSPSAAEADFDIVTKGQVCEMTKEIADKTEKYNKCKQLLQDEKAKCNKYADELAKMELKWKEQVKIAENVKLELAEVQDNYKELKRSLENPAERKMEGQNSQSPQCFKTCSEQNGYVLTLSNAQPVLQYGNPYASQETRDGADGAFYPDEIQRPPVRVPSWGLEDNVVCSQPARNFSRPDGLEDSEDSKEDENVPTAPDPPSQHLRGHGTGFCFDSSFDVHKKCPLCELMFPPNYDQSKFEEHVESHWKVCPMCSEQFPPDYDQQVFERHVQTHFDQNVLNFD

| effect of a mutation on the interaction | Variant |
| --- | --- |
| with no effect | Q749K |

Variants of: B3
Conditions: with fcsd2_human FCHSD2, O94868

| effect of a mutation on the interaction | Variant |
| --- | --- |
| with no effect | A89V |

Variants of: B4
Conditions: with dpoll_human POLL

| effect of a mutation on the interaction | Variant |
| --- | --- |
| with no effect | R23H |

Variants of: B5
Conditions: with wasc3_human WASHC3, Q9Y3C0

| effect of a mutation on the interaction | Variant |
| --- | --- |
| with no effect | A605P |
| with no effect | E348D |
| with no effect | S55P |
